In patent US20250243243A1 (HONG KONG UNIVERSITY OF SCIENCE AND TECHNOLOGY, published 2025) one finds binding result and Kd data, which are given here for three molecules.

Where no end group is shown, it is not given here.

One assay concerns the target T1, ShhN^1-198-HA (mouse, UniProt Q62226 25-198).
T1 construct: also called ShhN-HA; not shown: C-terminal 3xHA tag
Briefly: quantification of the co-immunoprecipitation (n=3). The source says:
FIG. 3D. […] FIG. 3E. […] FIG. 3F. […] FIG. 3G. […] FIG. 3O.

In another assay the target is T2, GST (UniProt P08515 1-218 = GST).
T2 construct: Control protein purified from E. coli; also called GST alone; purified GST
Briefly: pull-down on beads carrying peptides of the predicted first luminal loop of SURF4, purified prey, anti-GST immunoblot.

The next assay concerns the target T3, CW peptides (KRRHPKKC) (C-terminal cysteine added for coupling to thiopyridone-Sepharose 6B beads (pull-down)).
T3 construct: CW motif of Shh (mouse residues 33-39, human 32-38) plus an added C-terminal Cys; On beads in the pull-downs, free in solution in ITC; also called Cardin-Weintraub peptide; synthetic CW peptides
T3 peptide: KRRHPKKC
Briefly: ITC, 500 µM CW peptide injected into 50 µM GST-SURF4 (49-60), one set of sites model. For orientation: Isothermal titration calorimetry measures the heat released or taken up as one component is titrated into another.

T2 sequence (P08515 whole entry): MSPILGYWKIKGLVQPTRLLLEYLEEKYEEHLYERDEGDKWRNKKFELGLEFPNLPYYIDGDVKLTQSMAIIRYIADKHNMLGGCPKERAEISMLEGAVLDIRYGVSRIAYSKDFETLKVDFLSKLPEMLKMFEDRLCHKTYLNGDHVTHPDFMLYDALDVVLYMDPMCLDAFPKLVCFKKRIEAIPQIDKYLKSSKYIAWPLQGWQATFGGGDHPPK
T1 sequence (Q62226 25-198): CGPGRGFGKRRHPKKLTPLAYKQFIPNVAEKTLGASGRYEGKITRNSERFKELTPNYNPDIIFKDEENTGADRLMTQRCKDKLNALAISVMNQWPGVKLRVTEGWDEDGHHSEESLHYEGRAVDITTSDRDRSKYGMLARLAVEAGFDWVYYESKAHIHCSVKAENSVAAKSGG
Description for CW peptides (KRRHPKKC): We utilized a commercial isothermal titration calorimeter (PEAQ-ITC system, MicroCal, Malvern Panalytical, United Kingdom) to perform titration experiments. […] During each ITC experiment, 19 injections of CW peptide into the calorimetric cell were carried out while duration of each injection was 4 s and the time between the injections was 150 s. The volume of each injection was 2 μL and the stirring speed was maintained at 750 rpm. Control experiments such as peptide to buffer and buffer to protein titrations were also done to account for non-specific interactions and heat of dilution. The binding constant (Kd) was derived by fitting the data with one set of site model using the MicroCal PEAQ-ITC analysis software.

B1: SURF4^ED-AA-Myc (receptor)
chain: GQNDLMGTAEDFADQFLRVTKQYLPHVARLCLISTFLEDGIRMWFQWSAQRAYIATTWNCGYLLASSFVFLNLLGQLTGCVLVLSRNFVQYACFGLFGIIALQTIAYSILWDLKFLMRNLALGGGLLLLLAESRSEGKSMFAGVPTMRESSPKQYMQLGGRVLLVLMFMTLLHFDASFFSIVQNIVGTALMILVAIGFKTKLAALTLVVWLFAINVYFNAFWTIPVYKPMHDFLKYDFFQTMSVIGGLLLVVALGPGGVSMDEKKKEW
notes: SURF4-3xMyc with E50, D53 and D56 changed to alanine; also called Myc-tagged SURF4^ED-AA; not shown: C-terminal 3xMyc tag
With B1, the binding result with ShhN^1-198-HA is “binds”.

B2: SURF4 luminal peptides (SEQRDYIDTTWNC) (peptide)
peptide: SEQRDYIDTTWNC
modifications: not fully specified (residue 13)
notes: Immobilised on beads as bait; also called SURF4^49-61 peptides; SURF4 peptide
For the molecule B2, the binding result in the assay with GST is recorded as “no binding”.

B3: GST-SURF4^49-60 (other)
chain: {GST}-SEQRDYIDTTWN
modifications: also: GST tag linker not given here
notes: Purified from E. coli; also called N-terminal GST-tagged SURF4^49-60; GST-tagged SURF4^49-60; not shown: glutathione S-transferase (GST) tag, N-terminal
With B3, the dissociation constant (Kd) with CW peptides (KRRHPKKC) is 2350 nM.

In general, Kd refers to a measure of binding affinity in units of concentration. A low value points to a tighter complex.
